Source: IntAct's records for PubMed 21145460

B1: Regulator of nonsense transcripts 1 (Homo sapiens), Q92900-2 (parent)
chain: MSVEAYGPSSQTLTFLDTEEAELLGADTQGSEFEFTDFTLPSQTQTPPGGPGGPGGGGAGGPGGAGAGAAAGQLDAQVGPEGILQNGAVDDSVAKTSQLLAELNFEEDEEDTYYTKDLPIHACSYCGIHDPACVVYCNTSKKWFCNGRGNTSGSHIVNHLVRAKCKEVTLHKDGPLGETVLECYNCGCRNVFLLGFIPAKADSVVVLLCRQPCASQSSLKDINWDSSQWQPLIQDRCFLSWLVKIPSEQEQLRARQITAQQINKLEELWKENPSATLEDLEKPGVDEEPQHVLLRYEDAYQYQNIFGPLVKLEADYDKKLKESQTQDNITVRWDLGLNKKRIAYFTLPKTDSDMRLMQGDEICLRYKGDLAPLWKGIGHVIKVPDNYGDEIAIELRSSVGAPVEVTHNFQVDFVWKSTSFDRMQSALKTFAVDETSVSGYIYHKLLGHEVEDVIIKCQLPKRFTAQGLPDLNHSQVYAVKTVLQRPLSLIQGPPGTGKTVTSATIVYHLARQGNGPVLVCAPSNIAVDQLTEKIHQTGLKVVRLCAKSREAIDSPVSFLALHNQIRNMDSMPELQKLQQLKDETGELSSADEKRYRALKRTAERELLMNADVICCTCVGAGDPRLAKMQFRSILIDESTQATEPECMVPVVLGAKQLILVGDHCQLGPVVMCKKAAKAGLSQSLFERLVVLGIRPIRLQVQYRMHPALSAFPSNIFYEGSLQNGVTAADRVKKGFDFQWPQPDKPMFFYVTQGQEEIASSGTSYLNRTEAANVEKITTKLLKAGAKPDQIGIITPYEGQRSYLVQYMQFSGSLHTKLYQEVEIASVDAFQGREKDFIILSCVRANEHQGIGFLNDPRRLNVALTRARYGVIIVGNPKALSKQPLWNHLLNYYKEQKVLVEGPLNNLRESLMQFSKPRKLVNTINPGARFMTTAMYDAREAIIPGSVYDRSSQGRPSSMYFQTHDQIGMISAGPSHVAAMNIPIPFNLVMPPMPPPGYFGQANGPAAGRGTPKGKTGRGGRQKNRFGLPGPSQTNLPNSQASQDVASQPFSQGALTQGYISMSQPSQMSQPGLSQPELSQDSYLGDEFKSQIDVALSQDSTYQGERAYQHGGVTGLSQY
B2: Regulator of nonsense transcripts 1 (Homo sapiens), Q92900-2 (parent)
chain: B1 chain
partner: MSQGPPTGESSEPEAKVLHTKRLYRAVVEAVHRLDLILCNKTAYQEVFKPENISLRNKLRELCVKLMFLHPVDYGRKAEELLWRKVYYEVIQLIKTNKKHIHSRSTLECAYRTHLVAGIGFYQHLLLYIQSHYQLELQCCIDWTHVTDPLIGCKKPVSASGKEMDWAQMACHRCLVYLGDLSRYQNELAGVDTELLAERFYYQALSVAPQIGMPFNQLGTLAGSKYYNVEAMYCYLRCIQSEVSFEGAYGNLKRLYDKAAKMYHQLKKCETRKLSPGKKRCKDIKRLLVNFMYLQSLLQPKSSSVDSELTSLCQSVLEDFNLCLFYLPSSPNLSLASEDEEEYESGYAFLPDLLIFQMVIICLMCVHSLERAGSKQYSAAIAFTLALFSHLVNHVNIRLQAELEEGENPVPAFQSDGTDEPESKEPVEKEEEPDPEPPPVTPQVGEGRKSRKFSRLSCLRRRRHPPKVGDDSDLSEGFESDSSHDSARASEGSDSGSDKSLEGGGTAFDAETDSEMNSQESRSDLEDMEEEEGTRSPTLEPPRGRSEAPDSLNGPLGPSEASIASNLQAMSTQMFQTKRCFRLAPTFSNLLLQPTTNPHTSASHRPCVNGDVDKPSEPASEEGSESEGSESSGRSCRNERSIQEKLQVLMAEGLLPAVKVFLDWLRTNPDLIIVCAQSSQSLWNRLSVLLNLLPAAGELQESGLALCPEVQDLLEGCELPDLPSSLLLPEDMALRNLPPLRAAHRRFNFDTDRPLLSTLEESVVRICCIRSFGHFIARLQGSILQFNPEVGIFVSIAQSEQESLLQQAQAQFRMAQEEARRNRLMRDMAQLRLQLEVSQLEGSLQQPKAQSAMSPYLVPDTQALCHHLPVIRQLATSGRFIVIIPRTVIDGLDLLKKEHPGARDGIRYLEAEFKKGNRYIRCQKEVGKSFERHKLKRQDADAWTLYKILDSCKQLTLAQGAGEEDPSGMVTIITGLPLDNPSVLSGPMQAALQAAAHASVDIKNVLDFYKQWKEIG

Variants of: B1
Settings: with est1a_human SMG6, Q86US8
Sequence of est1a_human SMG6, Q86US8 (Q86US8 whole entry): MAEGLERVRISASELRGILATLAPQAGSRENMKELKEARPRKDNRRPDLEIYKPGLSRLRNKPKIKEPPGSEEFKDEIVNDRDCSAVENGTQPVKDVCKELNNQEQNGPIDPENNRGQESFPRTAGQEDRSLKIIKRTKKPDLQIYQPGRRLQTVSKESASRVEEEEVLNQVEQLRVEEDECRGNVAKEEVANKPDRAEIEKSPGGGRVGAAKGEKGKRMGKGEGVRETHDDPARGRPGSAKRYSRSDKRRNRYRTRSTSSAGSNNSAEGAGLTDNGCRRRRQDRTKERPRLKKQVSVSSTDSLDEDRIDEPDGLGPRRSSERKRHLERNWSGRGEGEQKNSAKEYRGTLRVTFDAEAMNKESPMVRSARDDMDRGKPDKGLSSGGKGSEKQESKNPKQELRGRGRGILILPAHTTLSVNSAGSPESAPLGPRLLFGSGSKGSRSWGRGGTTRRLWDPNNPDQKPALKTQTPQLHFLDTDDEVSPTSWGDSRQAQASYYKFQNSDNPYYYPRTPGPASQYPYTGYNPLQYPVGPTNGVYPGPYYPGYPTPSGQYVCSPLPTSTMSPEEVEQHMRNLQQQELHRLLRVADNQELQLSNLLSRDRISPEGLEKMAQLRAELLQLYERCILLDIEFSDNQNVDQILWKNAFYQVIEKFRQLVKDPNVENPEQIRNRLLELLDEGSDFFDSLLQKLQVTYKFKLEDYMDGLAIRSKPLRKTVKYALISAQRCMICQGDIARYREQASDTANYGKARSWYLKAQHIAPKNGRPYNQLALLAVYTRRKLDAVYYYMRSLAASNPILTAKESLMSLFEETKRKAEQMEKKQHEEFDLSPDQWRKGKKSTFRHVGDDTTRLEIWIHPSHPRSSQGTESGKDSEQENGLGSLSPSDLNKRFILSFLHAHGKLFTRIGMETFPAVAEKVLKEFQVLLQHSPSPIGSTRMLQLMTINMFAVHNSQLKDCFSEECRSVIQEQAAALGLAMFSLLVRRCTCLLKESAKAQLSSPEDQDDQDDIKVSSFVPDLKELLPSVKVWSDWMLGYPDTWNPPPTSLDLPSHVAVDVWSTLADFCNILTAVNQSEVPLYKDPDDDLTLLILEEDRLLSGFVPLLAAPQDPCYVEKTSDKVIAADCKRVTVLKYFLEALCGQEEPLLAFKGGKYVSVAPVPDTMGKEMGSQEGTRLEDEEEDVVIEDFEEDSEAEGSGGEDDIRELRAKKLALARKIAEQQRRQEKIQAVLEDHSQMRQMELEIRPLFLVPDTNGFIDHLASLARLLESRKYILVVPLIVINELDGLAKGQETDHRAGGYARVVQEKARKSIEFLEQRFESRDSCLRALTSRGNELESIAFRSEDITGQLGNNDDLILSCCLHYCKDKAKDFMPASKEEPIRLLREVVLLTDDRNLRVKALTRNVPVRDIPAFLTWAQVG

Variant	effect of a mutation on the interaction
D636A;E637A	increasing interaction
K498A	increasing interaction

Variants of: B2
Settings: with smg5_human SMG5, Q9UPR3

Variant	effect of a mutation on the interaction
K498A	increasing interaction
D636A;E637A	increasing interaction
